Measured values: the DeepSol protein solubility set

Assay: soluble on expression in E. coli; label from the status in PepcDB or PDB records

| Sequence | soluble on expression in E. coli |
| --- | --- |
| MSLGKTLFDKLWNRHVIYGKEGEPQLLYVDLHLIHEVTSPQAFEGLRMENRPLRRPDKTFATMDHNVPTEDIFNIQDLVAKKQIEALQTNCEEFGVTLADMGSDRQGIVHMVGPETGLTQPGKVIVCGDSHTATHGAFGAIGFGIGSSEVEHVFATQTIWQQKPKSMGIEINGNLPKGVYAKDIILHLIATYGVAFGTGYAVEYYGETIRNMSMEERMTICNMAIEGGAKMGMMAPDETTFEYVRGREYAPADMDKAISDWKTLQTDPDAEYDLHIKMDASILEPYVTWGTNPEMGVPFSKAFPEIKDMNYERAYEYMGLKPGQTAEEIELGYVFIGSCTNARLSDLEEAARIVKGNKVKNNIRALVVPGSRQVRNAAESIGLDKIFIEAGFEWREPGCSMCLGMNPDQVPDGVHCASTSNRNFEGRQGKGARTHLVSPAMAAAAAINGHFIDIRKEAVISGGNEGHHHHHH | not soluble |
| VTPYEDLLRFVLETGTPKSDRTGTGTRSLFGQQMRYDLSAGFPLLTTKKVHFKSVAYELLWFLRGDSNIGWLHEHGVTIWDEWASDTGELGPIYGVQWRSWPAPSGEHIDQISAALDLLRTDPDSRRIIVSAWNVGEIERMALPPCHAFFQFYVADGRLSCQLYQRSADLFLGVPFNIASYALLTHMMAAQAGLSVGEFIWTGGDCHIYDNHVEQVRLQLSREPRPYPKLLLADRDSIFEYTYEDIVVKNYDPHPAIKAPVAV | not soluble |
| MILHPRPSPIAAAMYQLRDIGVDAIILHGPSGCCFRTARLLEIDGIRVFTSAMGENDFIFGAMDKLRDVIAEVLEYLKKETPKSEKYKIGIVGTCASMIIGEDLESLIDDFDDIIIPVDIHSGLVDNTVGAIRAMDGALNAGLIDYSEYERQKKMLEHHHHHH | soluble |
| MWNMLIVAMCLALLGCLQAQELQGHVSIILLGATGDLAKKYLWQGLFQLYLDEAGRGHSFSFHGAALTAPKQGQELMAKALESLSCPKDMAPSHCAEHKDQFLQLSQYRQLKTAEDYQALNKDIEAQLQHAGLREAGRIFYFSVPPFAYEDIARNINSSCRPGPGAWLRVVLEKPFGHDHFSAQQLATELGTFFQEEEMYRVDHYLGKQAVAQILPFRDQNRKALDGLWNRHHVERVEIIMKETVDAEGRTSFYEEYGVIRDVLQNHLTEVLTLVAMELPHNVSSAEAVLRHKLQVFQALRGLQRGSAVVGQYQSYSEQVRRELQKPDSFHSLTPTFAGVLVHIDNLRWEGVPFILMSGKALDERVGYARILFKNQACCVQSEKHWAAAQSQCLPRQLVFHIGHGDLGSPAVLVSRNLFRPSLPSSWKEMEGPPGLRLFGSPLSDYYAYSPVRERDAHSVLLSHIFHGRKNFFITTENLLASWNFWTPLLESLAHKAPRLYPGGAENGRLLDFEFSSGRLFFSQQQPEQLVPGPGPAPMPSDFQVLRAKYRESPLVSAWSEELISKLANDIEATAVRAVRRFGQFHLALSGGSSPVALFQQLATAHYGFPWAHTHLWLVDERCVPLSDPESNFQGLQAHLLQHVRIPYYNIHPMPVHLQQRLCAEEDQGAQIYAREISALVANSSFDLVLLGMGADGHTASLFPQSPTGLDGEQLVVLTTSPSQPHRRMSLSLPLINRAKKVAVLVMGRMKREITTLVSRVGHEPKKWPISGVLPHSGQLVWYMDYDAFLG | soluble |
| MGSDKIHHHHHHMSRYVIRTYKVPVPVELYPLCSELNRIAARIYNKTMSLVKKIKNKKGFWLSPNTAQKYILRWSSAIDIHTHSKQAMVQLYFQALNSYFVAVKTNPHAKPPYKRKNFLPFIWKNQAIKLLPDGKVKLSMGRNREPFVIPTTLPAGTTIRQAKLVYEAGRYYLHLAIEVKSEHKRGQSQKVMSVDVGILRPITCFDGSEVISYHGGVLNSILRYRNKRLADIQRALSRCQKGSRRYKKLSRAKRRVLYKTRNQINDVLHKITSHFIGLCVQKNIGTIVVGDITNIRERTNGNDNFNQKLHQWAFRKLMSQIEYKAQIFGIEVVRISEAHTSKTCPVCGTQNRPSGRNYKCAGCGFEYHRDGVGAINIWKRYLGTKSQVVAGLAPARGVRFNPHLCGHGAISAPWKAA | not soluble |
| MGKYKFIEERVETMSSSELKIFLNILKSRSKELMSTLESVRGIKDLEAVCKSTQKLNNRVSEFDGGSFLILVVGPVKSGKSTLVNLIAHAHVSPTHFLECTVRPSIISKGQEESITRIFSVADKARKVEQFDSVIDSLRGFEKLENISEISIEKKELNDANLEECVSLALEESVINTDHTLVTSITTSGGELLKDNIFLVDMPGLDGGYVNLDNPIYETISQRADFVIFVQSSNSAISKVSNRFLKLLQENNPKVPVCLLHNVFEAAYWHSEEEKQAVIKAQVEFAENEMGRRNFQLKENIYSLNLGKVADAASYEGMEDLQEEAAKFQRFEKDLYGKVISNSTDIRLRSVIGRTLNQLEKLDNLVGESIGQQEAIDIEYQAAATSFDELLRQASELSYDGSDFRKMVQVYMDDDLKEFTEIVREYYDSGCNSAFAGGAKGKDATRSLVTKFMTDSSAAIKSKFLDSHEHSLARQYLRKLSNLKDDVAFIEKMNTFLKQKGCAPFDSVPQVTDFPVVDFDLQGAFDVKNINNPTVPHIGIPNPFGTYSTMEIQSFLRKAMECITGIDHTHTGKTIKGYLQLTVGKSIYKAANDLYDQYVPVRKQSIIDFLEQQKTMYLNALVSDKEEFDRKDALLRSINAQVQSFKDSIR | not soluble |
| MSTQMSVFLSTQAAQPQWGEKALISFAEQGATIHLQQTQDFSAIQRAARKLDNQGIRTAFLAGEGWDLESIWAFYQGYRDAKKRNTVEWKALAAAEQVELEARIKATDWTRDIINKSAEEVAPRQLATMAAEFIKSLAPDHVSYRIVKDKDLLTEGWEGIYAVGRGSERTSAMLQLDYNPTGDENAPVFACLVGKGITFDSGGYSLKPSNMMSAMKADMGGSGMITGALGLAIMRGFNKRVKLILCCAENMVSGRALKLGDIITYKNGKTVEIMNTDAEGRLVLADGLIYASEQKPQLIIDCATLTGAAKNALGNDYHALLSYDESLSQQALAAAKEENEALWALPLAEFHREMLPSNFADLSNISNGDYTPGASTAAAFLSYFVEGYQKGWLHFDCSATYRKSASDKWAAGATGMGVKMLARILMQQA | not soluble |
| MHHHHHHAMGIPGHAFSKIKVKQPVVELDGDEMTRIIWDKIKKKLILPYLDVDLKYYDLSVESRDATSDKITQDAAEAIKKYGVGIKCATITPDEARVKEFNLHKMWKSPNGTIRNILGGTVFREPIVIPRIPRLVPRWEKPIIIGRHAHGDQYKATDTLIPGPGSLELVYKPSDPTTAQPQTLKVYDYKGSGVAMAMYNTDESIEGFAHSSFKLAIDKKLNLFLSTKNTILKKYDGRFKDIFQEVYEAQYKSKFEQLGIHYEHRLIDDMVAQMIKSKGGFIMALKNYDGDVQSDIVAQGFGSLGLMTSILVTPDGKTFESEAAHGTVTRHYRKYQKGEETSTNSIASIFAWSRGLLKRGELDNTPALCKFANILESATLNTVQQDGIMTKDLALACGNNERSAYVTTEEFLDAVEKRLQKEIKSIE | soluble |
| RIVLQTSAHTLGDVVVTGYQTLERRKLTAAISKVEVSDAMVGAAKSIDQALTGQIAGVSVTNTSGAPGSPAKIRIRGTASMNGTQDPLWVLDGIPLEGTDIPKMDNKSSDNDIVNIGQSSIAGLSPNDIESITILKDAAATAIYGARAANGVIVVTTKRGKTGK | not soluble |
| SATKELDLLADTAIAETEKPLDLGLDDSKTHAFLFTATWCDWYFKDSRPTASQQCISAQNSVNNLTKKFDKFAWQGIISRLWTGPSELANYTKKYQVKHPIAIDVSNSMFHQYGIKEFPSLVVVKNGEVILKTSDFSKPESLAKQLSKL | not soluble |
| MGSDKIHHHHHHMMNSFYNGISGVKSNSFGIDITANNIANVNTTGFKYSDAQFKDIFYTTITTQSTNPAQGGYGSGAASSQVVFEQGSPVASDGEFDVALQGKGFFGVLGADGNAYYTRNGSFRRDANGYLVDSYGNFVLGTMNPAFTGINYSDRVAGLMGDYLNTGTPVNNGFTVNSNNSFSIGTTASQGAIKVPVNMYLPPQVTQNVKWSGSLNTNTTTEVVKVDLDPSKFNITKTEDGKYVVSGSVSKEDVFSAKAGDRIILNFTDDNGVKTSFEATLDENLNFKSNELDLKGLDENSIKLDTAQISTEQQKANKDILESPIYNADGSKSTLRVTLERVLPQEGDNIQYKAIAQIYDSNGNAVGNPTEGNMVFDKNGALLQNNITSIANPNGGTINIDLGSPYDANKPGSGYSGIYIKQGVEKNVVTQQDGVAEGFFEQYNISDDGSIVAQFSNGKNAIVGKLALYNFINEQGLVAMGDNIFAATANSGDASFIMKDGQVVNTAKFKGGFLEQSNVDLSAELSNLIVTQKAFDASSKSITTSDQMIQKAINMKR | not soluble |
| MTEPIKEIAAKRSVEAVYTGGTVRWSANGQKLFSTCTNVVKVIDLADNTASYTIGDPEDELRITCTAVDKNRNRLLVAYNNQIIREYSIPLDPSTTKPELARTWKTIHTAPILVMEFNEEGHLLATGSADHIVKVWNLTEQQCTHTLKGPSVVSAILFGKHEKLVVGYIEGQLNLYNIMRGAPKKLVNTWKSHNSHITALLQVPDSRVVVALSRDQTMSIHETETQETLRVLPLYESIEGGAIGHNGNLFTVGEEGVVKEFVIETAKLVRKKRIASSNLDHLAYDVVSNRFLAISAEQNLIILDFENLKIARQIVGFHDEIYSCCLLGKDESHMAVASNTSEIRLYNTKTLDCQLIRGHTESVLSVVSPTWDTSLLASCSKDNSIIFWRLVTSPENDSCSTLVPVAAATGHANTVTALAISNTGRAPFLASVSTDCTIKLWGLGVSTKLKEVKIDAEKDFVEQLPKLTCSSTMVAHGKDVNCVDISESDALIATGGMDKLVKLWQVDTHKMQLGIAGTLSGHRRGVGDVKFAKNSHKLASCSGDMTIKIWNISEKSCLQTISGHSCAVFRVIFARNDSQLISADSAGIIKIWTIKTADCECSIDAHTDKIWSLSKNHNESEFVTAGTDGRIVVWKDVTEEKQKAEDNKRREAIEQDQTLTNLLSQKRYSEALVFALTLAKPFCAFKVINALMAEETPEELGSAIRRLDTRQIEILLQFTVKWNTNSRTSSVAQRVLYEIVHIVDPEELVSMPGAYGYIESFLPYTQRHMDRLDRAKQDVSLFDFVWRQMRSSV | not soluble |
| MARFIARTKLNIDDIKEVDEYKALIPENNQYEELKKAIKEQGFLFPVIVNQNRELIDGYTRLRIARELGLTEIPAEVYETGGREEELDIIASLNLKRRHLTKDELVLLIDKIHEMKKRLKKDNIEEQNSGTGARISAIDKENISKNSVTEESREIREELKKLVPDVQINEDTIRKYLQIKKEVPWLVQYIGDEKKNKIGIRKAYEIYTLLSKKNLLDLDKRIPKTELTKLITDKEGRKILERDDLLQLILDHKMAVSQAINKLKTEEKIKQSKKKSRVKTEDEYAETDEEEEDETEEGQRELDENEEYPLLEEWQKAKEEEKQEAEQQLTPQLNVSPNSNTTQVTLEFSNVLKELSNKGFTKLDFNTDVVIAKINDKYYAILLEALKSLERGSKQYKELAEFLVSNNLAVYDPEEDNYIISWRSLNCS | soluble |
| MKSRIPVVLLACGSFNPITNMHLRMFEVARDHLHQTGMYQVIQGIISPVNDTYGKKDLAASHHRVAMARLALQTSDWIRVDPWESEQAQWMETVKVLRHHHSKLLRSPPQMEGPDHGKALFSTPAAVPELKLLCGADVLKTFQTPNLWKDAHIQEIVEKFGLVCVGRVSHDPKGYIAESPILRMHQHNIHLAKEPVQNEISATYIRRALGQGQSVKYLIPDAVITYIKDHGLYTKGSTWKGKSTQSTEGKTS | soluble |
| MKKVYLFKLKFNTPYGLRVGGPKEDISTLTPLKIGQHYVIPSSSWKGIFRRTTEVLITNPNHFRGHEGEDVTDDGSLDELLEAKGLENKNDENVRKERKRFIAMWNCPVERLYGSEYFASAVTFSDTLIDAEINQRTHVVIDRKTRKSEEKHLYSEQIVNVNSVRVKVIVRDRIDDWIKTLKFLSEFGTFVGGGKSRGIGYAVLDWKESEYAEVDGLTRKIMFKPLDELKL | soluble |
| MGLSDEQLGKIVRFHLKEDKQAHERIKQKMMESMKAFRKAVGEPATDDETLRKLGQAHIDSFNEMVKYHIDERKAVRSILTPEQIGKLEHHHHHH | not soluble |
